Results from publication PMC10529462 (Brain research, 2023).
No end group written: not given here.

T1: Mint1^WT C-terminal construct, amino acids 453-839 (rat, UniProt O35430 453-839)
T1 sequence (looked up): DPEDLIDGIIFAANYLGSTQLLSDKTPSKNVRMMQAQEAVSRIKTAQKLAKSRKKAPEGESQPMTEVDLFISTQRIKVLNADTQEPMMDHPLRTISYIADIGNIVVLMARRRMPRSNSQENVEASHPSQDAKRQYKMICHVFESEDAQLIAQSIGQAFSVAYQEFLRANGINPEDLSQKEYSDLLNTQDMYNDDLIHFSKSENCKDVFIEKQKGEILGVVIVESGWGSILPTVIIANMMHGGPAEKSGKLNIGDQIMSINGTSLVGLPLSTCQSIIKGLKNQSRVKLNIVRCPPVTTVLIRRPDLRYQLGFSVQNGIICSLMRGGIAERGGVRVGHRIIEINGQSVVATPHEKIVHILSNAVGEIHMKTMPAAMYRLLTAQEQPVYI

T2: Mint1^Y633A C-terminal construct, amino acids 453-839 (rat, UniProt O35430 453-839, Y633A)
T2 sequence (looked up): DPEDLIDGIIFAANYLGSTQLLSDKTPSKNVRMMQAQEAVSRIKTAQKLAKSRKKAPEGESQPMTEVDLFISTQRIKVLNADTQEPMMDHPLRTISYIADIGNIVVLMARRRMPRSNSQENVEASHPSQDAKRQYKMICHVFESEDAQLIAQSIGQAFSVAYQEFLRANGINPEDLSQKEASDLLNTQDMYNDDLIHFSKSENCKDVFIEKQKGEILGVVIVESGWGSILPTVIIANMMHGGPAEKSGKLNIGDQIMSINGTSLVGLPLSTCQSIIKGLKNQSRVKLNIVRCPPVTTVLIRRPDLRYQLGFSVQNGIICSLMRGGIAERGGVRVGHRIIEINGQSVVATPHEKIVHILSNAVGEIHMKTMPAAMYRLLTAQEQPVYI

T3: Mint1^Y549A/F610A C-terminal construct, amino acids 453-839 (rat, UniProt O35430 453-839, Y549A | F610A)
T3 sequence (looked up): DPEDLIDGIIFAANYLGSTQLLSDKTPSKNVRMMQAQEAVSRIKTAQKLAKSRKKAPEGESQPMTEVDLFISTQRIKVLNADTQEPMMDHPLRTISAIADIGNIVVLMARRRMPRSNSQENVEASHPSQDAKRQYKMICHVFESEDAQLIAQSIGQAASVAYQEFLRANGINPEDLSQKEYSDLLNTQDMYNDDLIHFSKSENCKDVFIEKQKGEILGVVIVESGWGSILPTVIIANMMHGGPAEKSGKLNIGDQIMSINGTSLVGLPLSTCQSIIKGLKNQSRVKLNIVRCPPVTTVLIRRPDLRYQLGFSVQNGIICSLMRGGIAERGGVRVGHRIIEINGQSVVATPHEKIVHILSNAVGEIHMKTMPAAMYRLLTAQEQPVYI


Experiments:
Test in all cases: fluorescence polarisation
TAMRA-PS1-10mer = target: TAMRA-PS1-10mer
[1] = target: T1, Mint1^WT C-terminal construct, amino …
[2] = target: T2, Mint1^Y633A C-terminal construct, amino …
[3] = target: T3, Mint1^Y549A/F610A C-terminal construct, …

Row | Kd (TAMRA-PS1-10mer) [µM] | Kd [1] [µM] | Kd [2] [µM] | Kd [3] [µM] | Binder
1 | 139 |  |  |  | Mint1^Y633A C-terminal construct, amino acids 453-839 (domain or fragment) DPEDLIDGIIFAANYLGSTQLLSDKTPSKNVRMMQAQEAVSRIKTAQKLAKSRKKAPEGESQPMTEVDLFISTQRIKVLNADTQEPMMDHPLRTISYIADIGNIVVLMARRRMPRSNSQENVEASHPSQDAKRQYKMICHVFESEDAQLIAQSIGQAFSVAYQEFLRANGINPEDLSQKEASDLLNTQDMYNDDLIHFSKSENCKDVFIEKQKGEILGVVIVESGWGSILPTVIIANMMHGGPAEKSGKLNIGDQIMSINGTSLVGLPLSTCQSIIKGLKNQSRVKLNIVRCPPVTTVLIRRPDLRYQLGFSVQNGIICSLMRGGIAERGGVRVGHRIIEINGQSVVATPHEKIVHILSNAVGEIHMKTMPAAMYRLLTAQEQPVYI
2 | 301 |  |  |  | Mint1^Y549A/F610A C-terminal construct, amino acids 453-839 (domain or fragment) DPEDLIDGIIFAANYLGSTQLLSDKTPSKNVRMMQAQEAVSRIKTAQKLAKSRKKAPEGESQPMTEVDLFISTQRIKVLNADTQEPMMDHPLRTISAIADIGNIVVLMARRRMPRSNSQENVEASHPSQDAKRQYKMICHVFESEDAQLIAQSIGQAASVAYQEFLRANGINPEDLSQKEYSDLLNTQDMYNDDLIHFSKSENCKDVFIEKQKGEILGVVIVESGWGSILPTVIIANMMHGGPAEKSGKLNIGDQIMSINGTSLVGLPLSTCQSIIKGLKNQSRVKLNIVRCPPVTTVLIRRPDLRYQLGFSVQNGIICSLMRGGIAERGGVRVGHRIIEINGQSVVATPHEKIVHILSNAVGEIHMKTMPAAMYRLLTAQEQPVYI
3 | 358 |  |  |  | Mint1^WT C-terminal construct, amino acids 453-839 (domain or fragment) DPEDLIDGIIFAANYLGSTQLLSDKTPSKNVRMMQAQEAVSRIKTAQKLAKSRKKAPEGESQPMTEVDLFISTQRIKVLNADTQEPMMDHPLRTISYIADIGNIVVLMARRRMPRSNSQENVEASHPSQDAKRQYKMICHVFESEDAQLIAQSIGQAFSVAYQEFLRANGINPEDLSQKEYSDLLNTQDMYNDDLIHFSKSENCKDVFIEKQKGEILGVVIVESGWGSILPTVIIANMMHGGPAEKSGKLNIGDQIMSINGTSLVGLPLSTCQSIIKGLKNQSRVKLNIVRCPPVTTVLIRRPDLRYQLGFSVQNGIICSLMRGGIAERGGVRVGHRIIEINGQSVVATPHEKIVHILSNAVGEIHMKTMPAAMYRLLTAQEQPVYI
4 |  | 282 ± 8.3 | 14.5 ± 0.74 | 382 ± 12.5 | {TAMRA}-NNGQNGYENPTYKFFEQMQN [TAMRA-APP17-mer]
5 |  | 619 ± 57.9 |  | 1460 ± 25.2 | {TAMRA}-NNGLSSGGRARHSYHHPDQDHWC [TAMRA-VGCC2.2-20mer]
